Measured values from the RNAGym collection of RNA variant scans (doi:10.7554/elife.80360).

B1: HDV Ribozyme (parent)
chain: GGCCGGCAUGGUCCCAGCCUCCUCGCUGGCGCCGGCUGGGCAACAUUCCGAGGGGACCGUCCCCUCGGUAAUGGCGAAUGGGACCCA

Variants of: B1
Assay: self-cleavage, relative activity (ratio to wild type); higher = more cleavage; co-transcriptional

| Variant | self-cleavage |
| --- | --- |
| G2C C3G | 0 |
| G6A C13G | 0 |
| G39U U65C | 0.752 |
| A16U C62A | 0.897 |
| C21G G53C | 0.0978 |
| C3A G6C | 0.0282 |
| A51C C63A | 0.475 |
| C24A G81U | 0.185 |
| U12A G17C | 0.0504 |
| C15G C30G | 0.317 |
| C41G G55C | 0.723 |
| C32U U79G | 0.504 |
| C14A C22G | 0.0573 |
| C24A G55A | 0.684 |
| A43G C57A | 0.628 |
| U72A G82A | 0.295 |
| G39A U47C | 0.208 |
| G40A A43U | 0.446 |
| C62U U79A | 0.95 |
| C30A G80A | 0.105 |
| G25U G68A | 0.0923 |
| U9C C26U | 1.17 |
| C41G A77G | 0.268 |
| C4A G73A | 0 |

| Variant | self-cleavage |
| --- | --- |
| C4A G73C | 0.0426 |
| G6U G53A | 0.821 |
| A16G G59U | 1.11 |
| C30U A87C | 0.755 |
| G54U G59A | 1 |
| A71C G80A | 0.266 |
| G10A C64A | 0.646 |
| C61U G80A | 0.242 |
| G39U C75U | 0.0923 |
| G6A G55U | 0.831 |
| C7U C44G | 0.464 |
| G17U A77U | 0.104 |
| U12C C30G | 0.0573 |
| G39C G67C | 0.232 |
| C44A C66U | 0.809 |
| C26U C30U | 0.967 |
| U23G U79G | 0.192 |
| U23A G59A | 1.12 |
| A8U U27G | 0.906 |
| C3A G17C | 0.0329 |
| G10A U65A | 0.831 |
| G35A G55C | 0.358 |
| G5U G28U | 0.115 |
| G34C C85A | 0.249 |

| Variant | self-cleavage |
| --- | --- |
| C15A C32U | 0.314 |
| G17U C18G | 0.095 |
| A16C C30G | 0.128 |
| G28C G68A | 0.0475 |
| A71G C75U | 0.151 |
| U46G U69C | 0.582 |
| G34A A56G | 0.104 |
| C14G G50C | 0.302 |
| C14G G74A | 0.199 |
| C61A C85U | 1.05 |
| C32U G73A | 0.364 |
| G5U G35C | 0 |
| C24G A70G | 0.0594 |
| G35C G40U | 0.145 |
| A51G G81C | 0.266 |
| A8U U46G | 0.604 |
| U9C G38U | 0.486 |
| G11A C15U | 0.479 |
| U9G G31U | 0.554 |
| C18A G25U | 0.162 |
| C19A A56U | 0.122 |
| A42C C48G | 0.229 |
| G2A G6A | 0.0563 |
| U27C | 0.8 |

| Variant | self-cleavage |
| --- | --- |
| C66U U69A | 0.831 |
| A45U G81A | 0.259 |
| U20A A56U | 0.0519 |
| G35C C61G | 0.217 |
| C36G C61A | 0.116 |
| G35A C48A | 0.659 |
| C18A C85A | 0.224 |
| G28A C58G | 0.0369 |
| C63A A70U | 0.812 |
| G29C U37C | 0.0898 |
| G25C G82A | 0.0361 |
| U60C U72C | 0.539 |
| C26U C57A | 1.22 |
| C30A U47C | 0.314 |
| C49G G76U | 1.17 |
| G35A G53A | 0.411 |
| G1U A51G | 0.514 |
| G53C U69C | 1.01 |
| C33G A43G | 0 |
| A43G U46G | 0.499 |
| U65G C85U | 0.831 |
| C18A C61U | 0.237 |
| C13G G76C | 0.217 |
| G39A G68U | 0.554 |

| Variant | self-cleavage |
| --- | --- |
| C21U U37C | 0.354 |
| G29A C58A | 0.318 |
| C4U A43C | 0.578 |
| U9C C24G | 0.0536 |
| G10C C75A | 0.415 |
| G31C G53C | 0.332 |
| C24A U27A | 0.639 |
| C15A G54C | 0.806 |
| C3A U69C | 0.665 |
| C57G C64U | 1.05 |
| G11U A16U | 0.673 |
| C22U A77U | 0.233 |
| U37A G53C | 0.162 |
| G29U A78U | 0.0287 |
| U23G U27G | 0.529 |
| G35U A87G | 0.257 |
| G38C A87C | 0.26 |
| U20G A78G | 0 |
| U47A C63A | 0.96 |
| G34A G55A | 0.17 |
| G59C G82U | 0.489 |
| C3G G38A | 0.0386 |
| G2A U65G | 0.223 |
| C13G C14G | 0.166 |

| Variant | self-cleavage |
| --- | --- |
| G11U C44U | 0.193 |
| G40A C49A | 0.95 |
| C7U G38U | 0.109 |
| C44U U79G | 0.727 |
| C4U G81A | 0.136 |
| A42G U69A | 0.554 |
| A16G G73A | 0.396 |
| C26U U65C | 1.07 |
| C36U G50U | 0.841 |
| A71U C85A | 1.08 |
| U60C A83C | 0.443 |
| U60A G81C | 0.0811 |
| C7U G10C | 0.266 |
| U37G A56U | 0.0723 |
| G5C A16C | 0.0875 |
| C13A G54U | 0.188 |
| G34A C48G | 0.119 |
| C41A G76C | 1.06 |
| C49A G73U | 0.272 |
| G53U A71U | 0.92 |
| G5A C26U | 0.511 |
| C19A U46G | 0.0386 |
| U69C G82A | 0.246 |
| U9G G28U | 0.151 |

| Variant | self-cleavage |
| --- | --- |
| G34U A78U | 0.121 |
| C3U C61A | 0.801 |
| U37G U65G | 0.0573 |
| C18U C21A | 0.115 |
| G35A C75U | 0.133 |
| G10U G81C | 0.101 |
| U12G U27C | 0.776 |
| C18U A45U | 0.361 |
| G25C G54C | 0.138 |
| G31A G73U | 0.229 |
| G52A U60G | 0.897 |
| A8C A70G | 0.782 |
| C26G C86A | 0.847 |
| G10A C85U | 0.946 |
| G17U C26A | 0.491 |
| C7G C58U | 0.492 |
| C13U G68C | 0.511 |
| A16C G29U | 0.0755 |
| U9A C48G | 1.31 |
| G38C G74A | 0.0936 |
| C3A G34A | 0.123 |
| G31U U65C | 0.339 |
| C24U C48G | 0.627 |
